Test results reported in publication PMC11574045, “A cofactor-induced repressive type of transcription factor condensation can be induced by synthetic peptides to suppress tumorigenesis” (The EMBO Journal, 2024).

Tested on: HEK293FT cells transfected with TF library
Assay: Screening of TF condensates based on fluorescent puncta
Format: cell-based
Settings: Figure 1B numerical data; TF library screen, one value per transcriptional factor
Method in brief: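 HEK293FT, PEI transfection of TF library, 60 h; ±glucose 12 h; 4% PFA fix, 0.05% Triton X-100 permeabilization, 5% BSA block; anti-Flag/anti-GAL4 overnight at 4 °C, Alexa 488 secondary 1 h; high-content imaging, 50 fields/well.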

Molecule | Z score of condensed fraction
ZBTB17 (protein, UniProt Q13105 1-803, looked up) Zinc finger and BTB …: MDFPQHSQHVLEQLNQQRQLGLLCDCTFVVDGVHFKAHKAVLAACSEYFKMLFVDQKDVVHLDISNAAGLGQVLEFMYTAKLSLSPENVDDVLAVATFLQMQDIITACHALKSLAEPATSPGGNAEALATEGGDKRAKEEKVATSTLSRLEQAGRSTPIGPSRDLKEERGGQAQSAASGAEQTEKADAPREPPPVELKPDPTSGMAAAEAEAALSESSEQEMEVEPARKGEEEQKEQEEQEEEGAGPAEVKEEGSQLENGEAPEENENEESAGTDSGQELGSEARGLRSGTYGDRTESKAYGSVIHKCEDCGKEFTHTGNFKRHIRIHTGEKPFSCRECSKAFSDPAACKAHEKTHSPLKPYGCEECGKSYRLISLLNLHKKRHSGEARYRCEDCGKLFTTSGNLKRHQLVHSGEKPYQCDYCGRSFSDPTSKMRHLETHDTDKEHKCPHCDKKFNQVGNLKAHLKIHIADGPLKCRECGKQFTTSGNLKRHLRIHSGEKPYVCIHCQRQFADPGALQRHVRIHTGEKPCQCVMCGKAFTQASSLIAHVRQHTGEKPYVCERCGKRFVQSSQLANHIRHHDNIRPHKCSVCSKAFVNVGDLSKHIIIHTGEKPYLCDKCGRGFNRVDNLRSHVKTVHQGKAGIKILEPEEGSEVSVVTVDDMVTLATEALAATAVTQLTVVPVGAAVTADETEVLKAEISKAVKQVQEEDPNTHILYACDSCGDKFLDANSLAQHVRIHTAQALVMFQTDADFYQQYGPGGTWPAGQVLQAGELVFRPRDGAEGQPALAETSPTAPECPPPAE | -0.2141
ZBTB37 (protein, UniProt Q5TC79 1-503, looked up) Zinc finger and BTB …: MEKGGNIQLEIPDFSNSVLSHLNQLRMQGRLCDIVVNVQGQAFRAHKVVLAASSPYFRDHMSLNEMSTVSISVIKNPTVFEQLLSFCYTGRICLQLADIISYLTAASFLQMQHIIDKCTQILEGIHFKINVAEVEAELSQTRTKHQERPPESHRVTPNLNRSLSPRHNTPKGNRRGQVSAVLDIRELSPPEESTSPQIIEPSSDVESREPILRINRAGQWYVETGVADRGGRSDDEVRVLGAVHIKTENLEEWLGPENQPSGEDGSSAEEVTAMVIDTTGHGSVGQENYTLGSSGAKVARPTSSEVDRFSPSGSVVPLTERHRARSESPGRMDEPKQPSSQVEESAMMGVSGYVEYLREQEVSERWFRYNPRLTCIYCAKSFNQKGSLDRHMRLHMGITPFVCRMCGKKYTRKDQLEYHIRKHTGNKPFHCHVCGKSFPFQAILNQHFRKNHPGCIPLEGPHSISPETTVTSRGQAEEESPSQEETVAPGEAVQGSVSTTGPD | 0.3942
ZBTB4 (protein, UniProt Q9P1Z0 1-1013, looked up) Zinc finger and BTB …: MPPPAEVTDPSHAPAVLRQLNEQRLRGLFCDVTLIAGDTKFPAHRSVLAASSPFFREALLTSAPLPLPPATGGAAPNPATTTAASSSSSSSSSSSSSSSSASSSSSSSSSSPPPASPPASSPPRVLELPGVPAAAFSDVLNFIYSARLALPGGGGDGAAVAEIGALGRRLGISRLQGLGEGGDAWVPPTPAPMATSQPEEDSFGPGPRPAGEWEGDRAEAQAPDLQCSLPRRPLPCPQCGKSFIHPKRLQTHEAQCRRGASTRGSTGLGAGGAGPGGPAGVDASALPPPVGFRGGPEHVVKVVGGHVLYVCAACERSYVTLSSLKRHSNVHSWRRKYPCRYCEKVFALAEYRTKHEVWHTGERRYQCIFCWETFVTYYNLKTHQRAFHGISPGLLASEKTPNGGYKPKLNTLKLYRLLPMRAAKRPYKTYSQGAPEAPLSPTLNTPAPVAMPASPPPGPPPAPEPGPPPSVITFAHPAPSVIVHGGSSSGGGGSGTASTGGSQAASVITYTAPPRPPKKREYPPPPPEPAATPTSPATAVSPATAAGPAMATTTEEAKGRNPRAGRTLTYTAKPVGGIGGGGGPPTGAGRGPSQLQAPPPLCQITVRIGEEAIVKRRISETDLRPGELSGEEMEESEEDEEEEDEEEEEEDEEESKAGGEDQLWRPYYSYKPKRKAGAAGGASVGGSGLPRGRRPPRWRQKLERRSWEETPAAESPAGRARTERRHRCGDCAQTFTTLRKLRKHQEAHGGGSHSSRAGRRPSTRFTCPHCAKVCKTAAALSRHGQRHAAERPGGTPTPVIAYSKGSAGTRPGDVKEEAPQEMQVSSSSGEAGGGSTAAEEASETASLQDPIISGGEEPPVVASGGSYVYPPVQEFPLALIGGGREPGGGRGKSGSEGPVGAGEGDRMEGIGAAKVTFYPEPYPLVYGPQLLAAYPYNFSNLAALPVALNMVLPDEKGAGALPFLPGVFGYAVNPQAAPPAPPTPPPPTLPPPIPPKGEGERAGVERTQKGDVG | 1.258
ZBTB21 (protein, UniProt Q9ULJ3 1-1066, looked up) Zinc finger and BTB …: MEGLLHYINPAHAISLLSALNEERLKGQLCDVLLIVGDQKFRAHKNVLAASSEYFQSLFTNKENESQTVFQLDFCEPDAFDNVLNYIYSSSLFVEKSSLAAVQELGYSLGISFLTNIVSKTPQAPFPTCPNRKKVFVEDDENSSQKRSVIVCQSRNEAQGKTVSQNQPDVSHTSRPSPSIAVKANTNKPHVPKPIEPLHNLSLTEKSWPKDSSVVYAKSLEHSGSLDDPNRISLVKRNAVLPSKPLQDREAMDDKPGVSGQLPKGKALELALKRPRPPVLSVCSSSETPYLLKETNKGNGQGEDRNLLYYSKLGLVIPSSGSGSGNQSIDRSGPLVKSLLRRSLSMDSQVPVYSPSIDLKSSQGSSSVSSDAPGNVLCALSQKSSLKDCSEKTALDDRPQVLQPHRLRSFSASQSTDREGASPVTEVRIKTEPSSPLSDPSDIIRVTVGDAATTAAASSSSVTRDLSLKTEDDQKDMSRLPAKRRFQADRRLPFKKLKVNEHGSPVSEDNFEEGSSPTLLDADFPDSDLNKDEFGELEGTRPNKKFKCKHCLKIFRSTAGLHRHVNMYHNPEKPYACDICHKRFHTNFKVWTHCQTQHGIVKNPSPASSSHAVLDEKFQRKLIDIVREREIKKALIIKLRRGKPGFQGQSSSQAQQVIKRNLRSRAKGAYICTYCGKAYRFLSQFKQHIKMHPGEKPLGVNKVAKPKEHAPLASPVENKEVYQCRLCNAKLSSLLEQGSHERLCRNAAVCPYCSLRFFSPELKQEHESKCEYKKLTCLECMRTFKSSFSIWRHQVEVHNQNNMAPTENFSLPVLDHNGDVTGSSRPQSQPEPNKVNHIVTTKDDNVFSDSSEQVNFDSEDSSCLPEDLSLSKQLKIQVKEEPVEEAEEEAPEASTAPKEAGPSKEASLWPCEKCGKMFTVHKQLERHQELLCSVKPFICHVCNKAFRTNFRLWSHFQSHMSQASEESAHKESEVCPVPTNSPSPPPLPPPPPLPKIQPLEPDSPTGLSENPTPATEKLFVPQESDTLFYHAPPLSAITFKRQFMCKLCHRTFKTAFSLWSHEQTHN | -0.7871
ZBTB26 (protein, UniProt Q9HCK0 1-441, looked up) Zinc finger and BTB …: MSERSDLLHFKFENYGDSMLQKMNKLREENKFCDVTVLIDDIEVQGHKIVFAAGSPFLRDQFLLNDSREVKISILQSSEVGRQLLLSCYSGVLEFPEMELVNYLTAASFLQMSHIVERCTQALWKFIKPKQPMDSKEGCEPQSASPQSKEQQGDARGSPKQDSPCIHPSEDSMDMEDSDIQIVKVESIGDVSEVRSKKDQNQFISSEPTALHSSEPQHSLINSTVENRVSEIEQNHLHNYALSYTGSDNIIMASKDVFGPNIRGVDKGLQWHHQCPKCTRVFRHLENYANHLKMHKLFMCLLCGKTFTQKGNLHRHMRVHAGIKPFQCKICGKTFSQKCSLQDHLNLHSGDKPHKCNYCDMVFAHKPVLRKHLKQLHGKNSFDNANERNVQDLTVDFDSFACTTVTDSKGCQPQPDATQVLDAGKLAQAVLNLRNDSTCVN | 0.2152
ZBTB43 (protein, UniProt O43298 1-467, looked up) Zinc finger and BTB …: MEPGTNSFRVEFPDFSSTILQKLNQQRQQGQLCDVSIVVQGHIFRAHKAVLAASSPYFCDQVLLKNSRRIVLPDVMNPRVFENILLSSYTGRLVMPAPEIVSYLTAASFLQMWHVVDKCTEVLEGNPTVLCQKLNHGSDHQSPSSSSYNGLVESFELGSGGHTDFPKAQELRDGENEEESTKDELSSQLTEHEYLPSNSSTEHDRLSTEMASQDGEEGASDSAEFHYTRPMYSKPSIMAHKRWIHVKPERLEQACEGMDVHATYDEHQVTESINTVQTEHTVQPSGVEEDFHIGEKKVEAEFDEQADESNYDEQVDFYGSSMEEFSGERSDGNLIGHRQEAALAAGYSENIEMVTGIKEEASHLGFSATDKLYPCQCGKSFTHKSQRDRHMSMHLGLRPYGCGVCGKKFKMKHHLVGHMKIHTGIKPYECNICAKRFMWRDSFHRHVTSCTKSYEAAKAEQNTTEAN | 0.02104
ZBTB38 (protein, UniProt Q8NAP3 1-1195, looked up) Zinc finger and BTB …: MTVMSLSRDLKDDFHSDTVLSILNEQRIRGILCDVTIIVEDTKFKAHSNVLAASSLYFKNIFWSHTICISSHVLELDDLKAEVFTEILNYIYSSTVVVKRQETVTDLAAAGKKLGISFLEDLTDRNFSNSPGPYVFCITEKGVVKEEKNEKRHEEPAITNGPRITNAFSIIETENSNNMFSPLDLRASFKKVSDSMRTASLCLERTDVCHEAEPVRTLAEHSYAVSSVAEAYRSQPVREHDGSSPGNTGKENCEALAAKPKTCRKPKTFSIPQDSDSATENIPPPPVSNLEVNQERSPQPAAVLTRSKSPNNEGDVHFSREDENQSSDVPGPPAAEVPPLVYNCSCCSKAFDSSTLLSAHMQLHKPTQEPLVCKYCNKQFTTLNRLDRHEQICMRSSHMPIPGGNQRFLENYPTIGQNGGSFTGPEPLLSENRIGEFSSTGSTLPDTDHMVKFVNGQMLYSCVVCKRSYVTLSSLRRHANVHSWRRTYPCHYCNKVFALAEYRTRHEIWHTGERRYQCIFCLETFMTYYILKNHQKSFHAIDHRLSISKKTANGGLKPSVYPYKLYRLLPMKCKRAPYKSYRNSSYENARENSQMNESAPGTYVVQNPHSSELPTLNFQDTVNTLTNSPAIPLETSACQDIPTSANVQNAEGTKWGEEALKMDLDNNFYSTEVSVSSTENAVSSDLRAGDVPVLSLSNSSENAASVISYSGSAPSVIVHSSQFSSVIMHSNAIAAMTSSNHRAFSDPAVSQSLKDDSKPEPDKVGRFASRPKSIKEKKKTTSHTRGEIPEESNYVADPGGSLSKTTNIAEETSKIETYIAKPALPGTSTNSNVAPLCQITVKIGNEAIVKRHILGSKLFYKRGRRPKYQMQEEPLPQGNDPEPSGDSPLGLCQSECMEMSEVFDDASDQDSTDKPWRPYYNYKPKKKSRQLKKMRKVNWRKEHGNRSPSHKCKYPAELDCAVGKAPQDKPFEEEETKEMPKLQCELCDGDKAVGAGNQGRPHRHLTSRPYACELCAKQFQSPSTLKMHMRCHTGEKPYQCKTCGRCFSVQGNLQKHERIHLGLKEFVCQYCNKAFTLNETLKIHERIHTGEKRYHCQFCFQRFLYLSTKRNHEQRHIREHNGKGYACFQCPKICKTAAALGMHQKKHLFKSPSQQEKIGDVCHENSNPLENQHFIGSEDNDQKDNIQTGVENVVL | -1.284
